From patent US20210388084A1 (JJP BIOLOGICS SP Z O O, published 2021)

T1: chimeric human/cynomolgus monkey CD89-II (human/cynomolgus monkey chimera, UniProt P24071 22-287)
T1 construct: also called ΔIle47-Ile71 human EC1-CD89; II (47-71)
T1 chain: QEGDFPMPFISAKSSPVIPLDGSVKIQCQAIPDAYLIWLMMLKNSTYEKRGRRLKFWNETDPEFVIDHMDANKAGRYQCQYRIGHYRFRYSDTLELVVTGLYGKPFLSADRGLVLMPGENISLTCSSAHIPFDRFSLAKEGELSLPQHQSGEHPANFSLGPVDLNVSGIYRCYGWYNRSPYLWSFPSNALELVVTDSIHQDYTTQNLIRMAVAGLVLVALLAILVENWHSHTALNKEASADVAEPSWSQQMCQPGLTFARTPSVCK

T2: chimeric human/cynomolgus monkey CD89-hotspots (human/cynomolgus monkey chimera, UniProt P24071 22-287)
T2 construct: also called ΔThr58, Gln59; ΔArg73, Arg74, Lys76
T2 chain: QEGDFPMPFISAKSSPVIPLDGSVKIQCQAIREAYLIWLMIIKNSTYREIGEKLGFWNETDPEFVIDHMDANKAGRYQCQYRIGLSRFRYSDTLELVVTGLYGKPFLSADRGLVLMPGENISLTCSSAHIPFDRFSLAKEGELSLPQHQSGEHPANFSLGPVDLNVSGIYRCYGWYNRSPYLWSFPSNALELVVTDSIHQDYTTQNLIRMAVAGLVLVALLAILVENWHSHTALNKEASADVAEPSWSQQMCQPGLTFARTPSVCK

T3: chimeric human/cynomolgus monkey CD89-III (human/cynomolgus monkey chimera, UniProt P24071 22-287)
T3 construct: also called ΔGly72-Gly96 human EC1-CD89; III (72-96)
T3 chain: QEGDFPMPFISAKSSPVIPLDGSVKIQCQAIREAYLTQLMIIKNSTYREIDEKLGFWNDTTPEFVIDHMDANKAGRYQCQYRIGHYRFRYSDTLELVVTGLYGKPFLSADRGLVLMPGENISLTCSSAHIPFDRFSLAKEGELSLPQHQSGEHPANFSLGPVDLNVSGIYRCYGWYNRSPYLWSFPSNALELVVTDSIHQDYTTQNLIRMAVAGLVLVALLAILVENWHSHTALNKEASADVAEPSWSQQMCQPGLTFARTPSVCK

T4: chimeric human/cynomolgus monkey CD89-I (human/cynomolgus monkey chimera, UniProt P24071 22-287)
T4 construct: also called ΔGln22-Lys46 human EC1-CD89; I (22-46)
T4 chain: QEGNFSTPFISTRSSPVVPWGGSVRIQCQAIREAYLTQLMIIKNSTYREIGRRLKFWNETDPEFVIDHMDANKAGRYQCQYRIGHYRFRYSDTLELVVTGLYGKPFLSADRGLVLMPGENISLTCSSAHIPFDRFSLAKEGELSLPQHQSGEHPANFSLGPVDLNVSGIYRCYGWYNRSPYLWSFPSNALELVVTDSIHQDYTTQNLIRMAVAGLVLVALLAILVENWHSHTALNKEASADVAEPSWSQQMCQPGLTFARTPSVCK

T5: chimeric human/cynomolgus monkey CD89-IV (human/cynomolgus monkey chimera, UniProt P24071 22-287)
T5 construct: also called ΔArg97-Gly121 human EC1-CD89
T5 chain: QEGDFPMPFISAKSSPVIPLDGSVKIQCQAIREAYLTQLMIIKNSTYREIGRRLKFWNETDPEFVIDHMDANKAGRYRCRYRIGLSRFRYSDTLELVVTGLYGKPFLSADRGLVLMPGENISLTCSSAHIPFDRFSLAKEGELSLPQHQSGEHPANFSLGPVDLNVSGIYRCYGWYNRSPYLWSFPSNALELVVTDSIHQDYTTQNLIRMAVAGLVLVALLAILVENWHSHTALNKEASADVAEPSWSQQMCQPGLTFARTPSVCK

T6: chimeric bovine EC1-Fcγ2R/human EC2-CD89 (bovine/human chimera)
T6 chain: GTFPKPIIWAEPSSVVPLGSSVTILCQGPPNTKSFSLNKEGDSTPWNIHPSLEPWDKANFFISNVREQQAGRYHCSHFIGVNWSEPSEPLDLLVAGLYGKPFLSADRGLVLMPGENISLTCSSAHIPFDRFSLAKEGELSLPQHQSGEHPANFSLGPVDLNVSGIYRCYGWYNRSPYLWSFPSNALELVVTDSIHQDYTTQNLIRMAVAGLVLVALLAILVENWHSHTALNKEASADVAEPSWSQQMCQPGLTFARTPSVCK


What was measured:
[1] = molecular target: T7, membrane-bound full-length human CD89 (human, UniProt P24071 22-287); assay: FACS, HEK293F-huCD89, 24 h 37C no NaN3, IgA then Ab 10 ug/mL; pre-bound heat-aggr serum IgA
T7 construct: on stably or transiently transfected HEK293F cells; also called FcalphaRI; huCD89
Method: (§1) After extensive washing in PBS/BSA/NaN₃, 1:200 diluted PE-conjugated streptavidin (Jackson ImmunoResearch) was added, and incubated for 30 minutes at 4° C. After extensive washing in PBS/BSA/NaN₃, cells were fixed in 2% formaldehyde in PBS/BSA/NaN₃ for 30 minutes at 4° C.

[2] = molecular target: T7, membrane-bound full-length human CD89; assay: FACS, HEK293F-huCD89, unlabeled Ab 10 ug/mL first; competitor A3-PE
Method: (§2) Then, 10 μL/tube (ie, 0.1×10⁶ cells) of these cells were incubated with or without 100 μL purified mouse anti-human CD89 antibody at 10 μg/mL (in PBS/BSA/NaN₃) for 30 minutes at 4° C. […] After extensive washing in PBS/BSA/NaN₃, cells were fixed in 2% formaldehyde in PBS/BSA/NaN₃ for 30 minutes at 4° C.

[3] = molecular target: T7, membrane-bound full-length human CD89; assay: FACS, HEK293F-huCD89, 24 h 37C no NaN3, Ab 10 ug/mL then IgA; competitor heat-aggr serum IgA
Method: as §1

[4] = molecular target: T1, chimeric human/cynomolgus monkey CD89-II; assay: FACS, transiently transfected HEK293F; - = no binding
Method: (§3) After 48 hours, the binding of CD89/IgA blocking mouse anti-human CD89 antibodies to aforementioned chimeric human CD89/cynomolgus monkey CD89 constructs on transfected cells was analyzed by FACS analysis. To this end, transient transfected HEK293F cells were put at 10×10⁶ cells/mL in ice-chilled phosphate-buffered saline containing 0.1% BSA (Sigma)/0.05% NaN₃ (PBS/BSA/NaN₃) supplemented with 50 μg/mL human IgGs (blocking Fcγ receptors; Sigma) for 10 minutes at 4° C. Then, 10 μL/tube (ie, 0.1×10⁶ cells) of these cells were incubated with or without 100 μL purified mouse anti-human CD89 antibody at 10 μg/mL (in PBS/BSA/NaN₃) for 30 minutes at 4° C. […] After extensive washing in PBS/BSA/NaN₃, cells were subsequently incubated with 1:200 diluted PE-conjugated goat anti-mouse IgG Fey-specific antibodies (Jackson ImmunoResearch) for 30 minutes at 4° C. After extensive washing in PBS/BSA/NaN₃, cells were fixed in 2% formaldehyde in PBS/BSA/NaN₃ for 30 minutes at 4° C.

[5] = molecular target: T7, membrane-bound full-length human CD89; assay: FACS, HEK293F-huCD89, half-maximum binding
Method: Then, 10 μL/tube (ie, 0.1×10⁶ cells) of these cells were incubated with or without 100 μL titrated (in PBS/BSA/NaN₃) purified chimeric mouse/human anti-human CD89 antibody/tube for 30 minutes at 4° C. […] After extensive washing in PBS/BSA/NaN₃, cells were subsequently incubated with 1:200 diluted PE-conjugated goat anti-human IgG Fey-specific antibodies (Jackson ImmunoResearch) for 30 minutes at 4° C. After extensive washing in PBS/BSA/NaN₃, cells were fixed in 2% formaldehyde in PBS/BSA/NaN₃ for 30 minutes at 4° C.

[6] = molecular target: T7, membrane-bound full-length human CD89; assay: FACS, HEK293F-huCD89, 24 h 37C no NaN3, Ab 10 ug/mL then IgA; competitor non-aggr serum IgA
Method: as §1

[7] = molecular target: T7, membrane-bound full-length human CD89; assay: FACS, HEK293F-huCD89, 4C +NaN3, Ab 10 ug/mL then IgA; competitor heat-aggr serum IgA
Method: To mimic human IgA immune complexes, human (serum-derived) IgA (Bethyl Laboratories) was heated at 63° C. for 30 minutes, and cooled down to RT followed by centrifugation at 4° C. 12000×g for 2 minutes to remove any insoluble protein precipitation.
Then, 10 μL/tube (ie, 0.1×10⁶ cells) of these cells were incubated with or without 50 μL purified mouse anti-human CD89 antibody at 20 μg/mL (in PBS/BSA/NaN₃) for 30 minutes at 4° C.

[8] = molecular target: T2, chimeric human/cynomolgus monkey …; assay: FACS, transiently transfected HEK293F, 10 ug/mL; ++ strong, + intermediate, -/+ weak
Method: as §3

[9] = molecular target: T3, chimeric human/cynomolgus monkey …; assay: as above
Method: as §3

[10] = molecular target: T4, chimeric human/cynomolgus monkey CD89-I; assay: as above
Method: as §3

[11] = molecular target: T5, chimeric human/cynomolgus monkey CD89-IV; assay: as above
Method: as §3

[12] = molecular target: T7, membrane-bound full-length human CD89; assay: FACS, HEK293F-huCD89, 24 h 37C no NaN3, IgA then Ab 10 ug/mL; pre-bound non-aggr serum IgA
Method: as §1

[13] = molecular target: T7, membrane-bound full-length human CD89; assay: FACS, HEK293F-huCD89, 4C +NaN3, IgA then Ab 10 ug/mL; pre-bound non-aggr serum IgA
Method: After this (ie, without washing), 50 μL purified mouse anti-human CD89 antibody at 20 μg/mL (in PBS/BSA/NaN₃) was added to these cells, and incubated for another 30 minutes at 4° C. […] After extensive washing in PBS/BSA/NaN₃, 1:200 diluted PE-conjugated streptavidin (Jackson ImmunoResearch) was added, and incubated for 30 minutes at 4° C. After extensive washing in PBS/BSA/NaN₃, cells were fixed in 2% formaldehyde in PBS/BSA/NaN₃ for 30 minutes at 4° C.

[14] = molecular target: T7, membrane-bound full-length human CD89; assay: FACS, HEK293F-huCD89, unlabeled Ab 10 ug/mL first; competitor A59-PE
Method: as §2

[15] = molecular target: T7, membrane-bound full-length human CD89; assay: FACS, HEK293F-huCD89, unlabeled Ab 10 ug/mL first; competitor MIP8a-PE
Method: as §2

[16] = molecular target: T7, membrane-bound full-length human CD89; assay: FACS, HEK293F-huCD89, 4C +NaN3, Ab 10 ug/mL then IgA; competitor non-aggr serum IgA
Method: Then, 10 μL/tube (ie, 0.1×10⁶ cells) of these cells were incubated with or without 50 μL purified mouse anti-human CD89 antibody at 20 μg/mL (in PBS/BSA/NaN₃) for 30 minutes at 4° C. […] After extensive washing in PBS/BSA/NaN₃, 1:200 diluted PE-conjugated streptavidin (Jackson ImmunoResearch) was added, and incubated for 30 minutes at 4° C. After extensive washing in PBS/BSA/NaN₃, cells were fixed in 2% formaldehyde in PBS/BSA/NaN₃ for 30 minutes at 4° C.

[17] = molecular target: T8, recombinant C-terminal polyhistidine-tagged human (extracellular) CD89 (human, UniProt P24071 22-227); assay: ELISA, coated rhuCD89, half-maximum binding
T8 construct: extracellular domain; bought (Sino Biological); also called rhuCD89
Method: After extensive washing with PBS/0.05% Tween 20, plates were blocked with PBS/0.05% Tween 20/1% BSA (Roche) for 1 hour at RT. Subsequently, plates were incubated with 50 μL titrated (in block buffer) purified mouse anti-human CD89 antibody/well for 1 hour at RT. […] After extensive washing in PBS/0.05% Tween 20, binding of antibodies on rhuCD89 was determined with 1:5,000 diluted horseradish peroxidase (HRP)-conjugated goat anti-mouse IgG Fey-specific antibodies (Jackson ImmunoResearch) for 1 hour at RT, followed by a ready-to-use solution of TMB substrate (Invitrogen) for colorimetric detection.
After extensive washing with PBS/0.05% Tween 20, plates were blocked with PBS/0.05% Tween 20/1% BSA (Roche) for 1 hour at RT. Subsequently, plates were incubated with and without 50 μL titrated (in block buffer) purified chimeric mouse/human anti-human CD89 antibody/well for 1 hour at RT. After extensive washing in PBS/0.05% Tween 20, binding of antibodies on rhuCD89 was determined with 1:5,000 diluted horseradish peroxidase (HRP)-conjugated goat anti-human IgG Fey-specific antibodies (Jackson ImmunoResearch) for 1 hour at RT, followed by a ready-to-use solution of TMB substrate (Invitrogen) for colorimetric detection.

[18] = molecular target: T6, chimeric bovine EC1-Fcγ2R/human EC2-CD89; assay: FACS, transiently transfected HEK293F
Method: After 48 hours and/or 72 hours, the binding of CD89/IgA blocking mouse anti-human CD89 antibodies to aforementioned chimeric human/bovine receptors on transfected cells was analyzed by FACS analysis. To this end, transient transfected HEK293F cells were put at 10×10⁶ cells/mL in ice-chilled phosphate-buffered saline containing 0.1% BSA (Sigma)/0.05% NaN₃ (PBS/BSA/NaN₃) supplemented with 50 μg/mL human IgGs (blocking Fcγ receptors; Sigma) for 10 minutes at 4° C. Then, 10 μL/tube (ie, 0.1×10⁶ cells) of these cells were incubated with or without 100 μL purified mouse anti-human CD89 antibody at 10 μg/mL (in PBS/BSA/NaN₃) for 30 minutes at 4° C. […] After extensive washing in PBS/BSA/NaN₃, cells were subsequently incubated with 1:200 diluted PE-conjugated goat anti-mouse IgG Fey-specific antibodies (Jackson ImmunoResearch) for 30 minutes at 4° C. After extensive washing in PBS/BSA/NaN₃, cells were fixed in 2% formaldehyde in PBS/BSA/NaN₃ for 30 minutes at 4° C.

[19] = molecular target: T7, membrane-bound full-length human CD89; assay: FACS, HEK293F-huCD89, 4C +NaN3, IgA then Ab 10 ug/mL; pre-bound heat-aggr serum IgA
Method: as §1

[20] = molecular target: T2, chimeric human/cynomolgus monkey …; assay: FACS, transiently transfected HEK293F; - = no binding
Method: as §3

[21] = molecular target: T1, chimeric human/cynomolgus monkey CD89-II; assay: FACS, transiently transfected HEK293F, 10 ug/mL; ++ strong, + intermediate, -/+ weak
Method: as §3

percent IgA binding (remaining) [1] [%] | % blocking of A3-PE binding [2] [%] | percent IgA binding (remaining) [3] [%] | EC50 [5] [µg/mL] | percent IgA binding [7] [%] | binding result [9] | binding result [10] | binding result [11] | % blocking of A59-PE binding [14] [%] | % blocking of MIP8a-PE binding [15] [%] | percent IgA binding [16] [%] | EC50 [17] [µg/mL] | binding result [18] | Binder | other results
0 to 25 | < 25 | 0 to 25 | 0.484 | 0 to 25 | binds | binds | binds | < 25 | > 90 | 0 to 25 | 0.029 | no binding (tested: 10 µg/mL) | mouse anti-human CD89-specific antibody 30C7 (antibody, mouse IgG1, V domains shown) VH: QVQLQQSGPELVRPGVSVKISCKGSGYTFTDYVMHWVKQSHAKSLEWIGVISTYSGNTNYNQKFKGKATMTVDKSSSTAYMELARLTSEDSAIYYCARESDGYYFDYWGQGTTLTVSS VL: DIVMSQSPSSLAVSAGEKVTMSCKSSQSLLNSRTRKNYLAWYQQKPGQSPKLLIYWASTRESGVPDRFTGSGSGTDFTLTISSVQAEDLAVYYCKQSYNLMYTFGGGTKLEIK | binding result [4]: no binding (tested: 10 µg/mL); percent IgA binding (remaining) [6]: 0 to 25%; binding result [8]: binds; percent IgA binding (remaining) [12]: 0 to 25%; percent IgA binding [13]: 26 to 50%
76 to 125 | < 25 | 76 to 125 | 1.62 | 0 to 25 | binds | binds | binds | < 25 | < 25 | 0 to 25 | 0.119 | no binding (tested: 10 µg/mL) | mouse anti-human CD89-specific antibody 16D6 (antibody, mouse IgG1, V domains shown, also called 16D16) VH: QVQLQQSGAELMKPGASVKISCKATGYTFSTYWIEWVKQRPGHGLEWIGEILPGSGSANYNEKFKGKATFTADTSSNTAYMQLSSLTFEDSAVYYCAKGFGSPYYYAMDYWGQGTSVTVSS VL: EIVLTQSPALMAASPGEKVTITCSVSSSISSSNLHWYQQKSETSPKPWIYGTSKLASGVPVRFSGSGSGTSYSLTISNMEAEDAATYYCQQWSSFPLTFGGGTKLEIK | percent IgA binding [19]: 76 to 125%; binding result [20]: no binding (tested: 10 µg/mL); binding result [21]: binds
